Test results taken from patent US9505823.

Target: IGF-I receptor (on L6 cells) (UniProt P24062)
Experiment: cell-based or functional assay

Chain of UniProt P24062 (P24062 31-1370 limits assumed): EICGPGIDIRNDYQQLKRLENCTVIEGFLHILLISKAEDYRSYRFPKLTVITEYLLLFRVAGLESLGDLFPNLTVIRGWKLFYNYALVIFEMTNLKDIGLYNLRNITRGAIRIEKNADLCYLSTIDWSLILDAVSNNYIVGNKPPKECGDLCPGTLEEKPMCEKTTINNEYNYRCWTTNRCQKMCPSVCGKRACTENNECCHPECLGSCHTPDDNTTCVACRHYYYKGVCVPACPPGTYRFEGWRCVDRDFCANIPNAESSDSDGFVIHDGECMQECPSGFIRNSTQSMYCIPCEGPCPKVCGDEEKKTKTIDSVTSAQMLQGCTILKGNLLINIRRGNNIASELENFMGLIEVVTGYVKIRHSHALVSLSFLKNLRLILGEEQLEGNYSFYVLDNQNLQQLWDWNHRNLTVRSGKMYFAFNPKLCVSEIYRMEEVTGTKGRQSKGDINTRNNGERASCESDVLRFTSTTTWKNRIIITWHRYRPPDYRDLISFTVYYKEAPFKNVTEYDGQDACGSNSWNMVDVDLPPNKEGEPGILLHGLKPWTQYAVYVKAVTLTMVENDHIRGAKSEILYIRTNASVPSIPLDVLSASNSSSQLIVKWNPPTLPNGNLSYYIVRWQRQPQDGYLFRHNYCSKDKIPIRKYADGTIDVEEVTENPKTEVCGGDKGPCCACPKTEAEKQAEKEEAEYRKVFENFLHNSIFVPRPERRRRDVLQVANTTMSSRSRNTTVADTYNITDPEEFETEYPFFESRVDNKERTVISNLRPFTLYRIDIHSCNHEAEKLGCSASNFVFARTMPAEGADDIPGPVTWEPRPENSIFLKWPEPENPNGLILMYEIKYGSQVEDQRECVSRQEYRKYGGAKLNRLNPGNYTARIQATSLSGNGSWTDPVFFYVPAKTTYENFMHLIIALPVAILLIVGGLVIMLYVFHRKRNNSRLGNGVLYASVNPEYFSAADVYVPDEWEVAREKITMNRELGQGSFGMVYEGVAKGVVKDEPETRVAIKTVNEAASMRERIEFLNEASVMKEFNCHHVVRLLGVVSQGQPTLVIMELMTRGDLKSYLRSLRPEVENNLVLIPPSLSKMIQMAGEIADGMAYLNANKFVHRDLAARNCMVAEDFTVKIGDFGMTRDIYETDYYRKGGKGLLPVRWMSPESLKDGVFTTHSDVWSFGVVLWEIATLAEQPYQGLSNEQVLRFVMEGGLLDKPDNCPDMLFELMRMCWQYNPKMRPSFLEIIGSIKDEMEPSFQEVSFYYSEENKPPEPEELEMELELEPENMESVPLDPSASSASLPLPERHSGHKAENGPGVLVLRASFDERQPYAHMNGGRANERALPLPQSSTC

Substance	EC50 of L6 cell proliferation (CellTiter-Glo, 2 days)	EC50 of mitogenic activity, L6 cells	Percent mitogenic activity, L6 cells (insulin = 100)
Glargine (Lantus, Aventis) (ligand)	0.9 nM	4.73 nM	77 percent
IGF-I (from UniProt P05019 49-118) (ligand)	0.04 nM	0.07 nM	5230 percent
Levemir (ligand)		14.8 nM	24.7 percent
